7 molecules from patent US20240261333A1, “NOVEL TARGETS FOR ENHANCING ANTI-TUMOR IMMUNITY” (THE BROAD INSTITUTE, INC., priority 2021, published 2024) can be followed below.

First the molecules themselves.
B1: LOXL4 (protein)
chain: QSLGTTKLRLVGPESKPEEGRLEVLHQGQWGTVCDDNFAIQEATVACRQLGFEAALTWAHSAKYGQGEGPIWLDNVRCVGTESSLDQCGSNGWGVSDCSHSEDVGVICHPRRHRGYLSETVSNALGPQGRRLEEVRLKPILASAKQHSPVTEGAVEVKYEGHWRQVCDQGWTMNNSRVVCGMLGFPSEVPVDSHYYRKVWDLKMRDPKSRLKSLTNKNSFWIHQVTCLGTEPHMANCQVQVAPARGKLRPACPGGMHAVVSCVAGPHFRPPKTKPQRKGSWAEEPRVRLRSGAQVGEGRVEVLMNRQWGTVCDHRWNLISASVVCRQLGFGSAREALFGARLGQGLGPIHLSEVRCRGYERTLSDCPALEGSQNGCQHENDAAVRCNVPNMGFQNQVRLAGGRIPEEGLLEVQVEVNGVPRWGSVCSENWGLTEAMVACRQLGLGFAIHAYKETWFWSGTPRAQEVVMSGVRCSGTELALQQCQRHGPVHCSHGGGRFLAGVSCMDSAPDLVMNAQLVQETAYLEDRPLSQLYCAHEENCLSKSADHMDWPYGYRRLLRFSTQIYNLGRTDFRPKTGRDSWVWHQCHRHYHSIEVFTHYDLLTLNGSKVAEGHKASFCLEDTNCPTGLQRRYACANFGEQGVTVGCWDTYRHDIDCQWVDITDVGPGNYIFQVIVNPHYEVAESDFSNNMLQCRCKYDGHRVWLHNCHTGNSYPANAELSLEQEQRLRNNLI
B2: GNAS (protein)
chain: MGVRNCLYGNNMSGQRDIPPEIGEQPEQPPLEAPGAAAPGAGPSPAEEMETEPPHNEPIPVENDGEACGPPEVSRPNFQVLNPAFREAGAHGSYSPPPEEAMPFEAEQPSLGGFWPTLEQPGFPSGVHAGLEAFGPALMEPGAFSGARPGLGGYSPPPEEAMPFEFDQPAQRGCSQLLLQVPDLAPGGPGAAGVPGAPPEEPQALRPAKAGSRGGYSPPPEETMPFELDGEGFGDDSPPPGLSRVIAQVDGSSQFAAVAASSAVRLTPAANAPPLWVPGAIGSPSQEAVRPPSNFTGSSPWMEISGPPFEIGSAPAGVDDTPVNMDSPPIALDGPPIKVSGAPDKRERAERPPVEEEAAEMEGAADAAEGGKVPSPGYGSPAAGAASADTAARAAPAAPADPDSGATPEDPDSGTAPADPDSGAFAADPDSGAAPAAPADPDSGAAPDAPADPDSGAAPDAPADPDAGAAPEAPAAPAAAETRAAHVAPAAPDAGAPTAPAASATRAAQVRRAASAAPASGARRKIHLRPPSPEIQAADPPTPRPTRASAWRGKSESSRGRRVYYDEGVASSDDDSSGDESDDGTSGCLRWFQHRRNRRRRKPQRNLLRNFLVQAFGGCFGRSESPQPKASRSLKVKKVPLAEKRRQMRKEALEKRAQKRAEKKRSKLIDKQLQDEKMGYMCTHRLLLLGAGESGKSTIVKQMRILHVNGFNGEGGEEDPQAARSNSDGEKATKVQDIKNNLKEAIETIVAAMSNLVPPVELANPENQFRVDYILSVMNVPDFDFPPEFYEHAKALWEDEGVRACYERSNEYQLIDCAQYFLDKIDVIKQADYVPSDQDLLRCRVLTSGIFETKFQVDKVNFHMFDVGGQRDERRKWIQCFNDVTAIIFVVASSSYNMVIREDNQTNRLQEALNLFKSIWNNRWLRTISVILFLNKQDLLAEKVLAGKSKIEDYFPEFARYTTPEDATPEPGEDPRVTRAKYFIRDEFLRISTASGDGRHYCYPHFTCAVDTENIRRVFNDCRDIIQRMHLRQYELL
B3: SMN1 (protein)
chain: AMSSGGSGGGVPEQEDSVLFRRGTGQSDDSDIWDDTALIKAYDKAVASFKHALKNGDICETSGKPKTTPKRKPAKKNKSQKKNTAASLQQWKVGDKCSAIWSEDGCIYPATIASIDFKRETCVVVYTGYGNREEQNLSDLLSPICEVANNIEQNAQENENESQVSTDESENSRSPGNKSDNIKPKSAPWNSFLPPPPPMPGPRLGPGKPGLKFNGPPPPPPPPPPHLLSCWLPPFPSGPPIIPPPPPICPDSLDDADALGSMLISWYMSGYHTGYYMEMLA
B4: DPM1 (protein, UniProt O60762 2-260, looked up)
Dolichol-phosphate …: ASLEVSRSPRRSRRELEVRSPRQNKYSVLLPTYNERENLPLIVWLLVKSFSESGINYEIIIIDDGSPDGTRDVAEQLEKIYGSDRILLRPREKKLGLGTAYIHGMKHATGNYIIIMDADLSHHPKFIPEFIRKQKEGNFDIVSGTRYKGNGGVYGWDLKRKIISRGANFLTQILLRPGASDLTGSFRLYRKEVLEKLIEKCVSKGYVFQMEMIVRARQLNYTIGEVPISFVDRVYGESKLGGNEIVSFLKGLLTLFATT
B5: TRIM28 (protein)
chain: AASAAAASAAAASAASGSPGPGEGSAGGEKRSTAPSAAASASASAAASSPAGGGAEALELLEHCGVCRERLRPEREPRLLPCLHSACSACLGPAAPAAANSSGDGGAAGDGTVVDCPVCKQQCFSKDIVENYFMRDSGSKAATDAQDANQCCTSCEDNAPATSYCVECSEPLCETCVEAHQRVKYTKDHTVRSTGPAKSRDGERTVYCNVHKHEPLVLFCESCDTLTCRDCQLNAHKDHQYQFLEDAVRNQRKLLASLVKRLGDKHATLQKSTKEVRSSIRQVSDVQKRVQVDVKMAILQIMKELNKRGRVLVNDAQKVTEGQQERLERQHWTMTKIQKHQEHILRFASWALESDNNTALLLSKKLIYFQLHRALKMIVDPVEPHGEMKFQWDLNAWTKSAEAFGKIVAERPGTNSTGPAPMAPPRAPGPLSKQGSGSSQPMEVQEGYGFGSGDDPYSSAEPHVSGVKRSRSGEGEVSGLMRKVPRVSLERLDLDLTADSQPPVFKVFPGSTTEDYNLIVIERGAAAAATGQPGTAPAGTPGAPPLAGMAIVKEEETEAAIGAPPTATEGPETKPVLMALAEGPGAEGPRLASPSGSTSSGLEVVAPEGTSAPGGGPGTLDDSATICRVCQKPGDLVMCNQCEFCFHLDCHLPALQDVPGEEWSCSLCHVLPDLKEEDGSLSLDGADSTGVVAKLSPANQRKCERVLLALFCHEPCRPLHQLATDSTFSLDQPGGTLDLTLIRARLQEKLSPPYSSPQEFAQDVGRMFKQFNKLTEDKADVQSIIGLQRFFETRMNEAFGDTKFSAVLVEPPPMSLPGAGLSSQELSGGPGDGP
B6: OS9 (protein)
chain: GGVGSLNLEELSEMRYGIEILPLPVMGGQSQSSDVVIVSSKYKQRYECRLPAGAIHFQREREEETPAYQGPGIPELLSPMRDAPCLLKTKDWWTYEFCYGRHIQQYHMEDSEIKGEVLYLGYYQSAFDWDDETAKASKQHRLKRYHSQTYGNGSKCDLNGRPREAEVRFLCDEGAGISGDYIDRVDEPLSCSYVLTIRTPRLCPHPLLRPPPSAAPQAILCHPSLQPEEYMAYVQRQADSKQYGDKIIEELQDLGPQVWSETKSGVAPQKMAGASPTKDDSKDSDFWKMLNEPEDQAPGGEEVPAEEQDPSPEAADSASGAPNDFQNNVQVKVIRSPADLIRFIEELKGGTKKGKPNIGQEQPVDDAAEVPQREPEKERGDPERQREMEEEEDEDEDEDEDEDERQLLGEFEKELEGILLPSDRDRLRSETEKELDPDGLKKESERDRAMLALTSTLNKLIKRLEEKQSPELVKKHKKKRVVPKKPPPSPQPTEEDPEHRVRVRVTKLRLGGPNQDLTVLEMKRENPQLKQIEGLVKELLEREGLTAAGKIEIKIVRPWAEGTEEGARWLTDEDTRNLKEIFFNILVPGAEEAQKERQRQKELESNYRRVWGSPGGEGTGDLDEFDF
B7: PGK1 (protein)
chain: SLSNKLTLDKLDVKGKRVVMRVDFNVPMKNNQITNNQRIKAAVPSIKFCLDNGAKSVVLMSHLGRPDGVPMPDKYSLEPVAVELKSLLGKDVLFLKDCVGPEVEKACANPAAGSVILLENLRFHVEEEGKGKDASGNKVKAEPAKIEAFRASLSKLGDVYVNDAFGTAHRAHSSMVGVNLPQKAGGFLMKKELNYFAKALESPERPFLAILGGAKVADKIQLINNMLDKVNEMIIGGGMAFTFLKVLNNMEIGTSLFDEEGAKIVKDLMSKAEKNGVKITLPVDFVTADKFDENAKTGQATVASGIPAGWMGLDCGPESSKKYAEAVTRAKQIVWNGPVGVFEWEAFARGTKALMDEVVKATSRGCITIIGGGDTATCCAKWNTEDKVSHVSTGGGASLELLEGKVLPGVDALSNI

The target in the first experiment is T1, B3GNT2 (Homo sapiens, UniProt Q9NY97).
T1 construct: The respective ORFs of candidate genes [CD274 (NM_014143), MCL1 (NM_021960), JUNB (NM_002229), and B3GNT2 (NM_006577)] were synthesized; expressed in transfected cells; host or cells: A375 melanoma cells (lentiviral ORF overexpression)
T1 sequence (Q9NY97 1-397): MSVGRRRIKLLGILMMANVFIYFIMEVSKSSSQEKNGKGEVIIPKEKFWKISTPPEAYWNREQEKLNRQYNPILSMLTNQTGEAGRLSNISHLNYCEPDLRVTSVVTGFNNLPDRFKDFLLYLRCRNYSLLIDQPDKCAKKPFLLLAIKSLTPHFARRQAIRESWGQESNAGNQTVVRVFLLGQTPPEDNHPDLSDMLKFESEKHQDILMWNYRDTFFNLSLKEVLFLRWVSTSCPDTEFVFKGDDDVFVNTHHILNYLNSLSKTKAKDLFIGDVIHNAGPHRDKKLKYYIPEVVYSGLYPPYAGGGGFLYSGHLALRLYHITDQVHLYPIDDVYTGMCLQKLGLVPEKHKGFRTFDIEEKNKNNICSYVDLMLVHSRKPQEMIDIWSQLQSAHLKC
Description: Co-IP of FLAG-tagged B3GNT2 followed by mass spectrometry. In kind it is cell-based. Also on record: C-term IgG / C-term flag: unit not given here. To be noted: Co-IP with FLAG antibody, C-terminally FLAG-tagged B3GNT2; mass spectrometry count, unit not given. The essentials:
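Co-purifying proteins were identified by fractionated nano-LC–MS/MS on an Orbitrap Elite, run data-dependent. Beforehand, lysates in 1% Triton X-100/HEPES buffer were incubated overnight at 4° C with anti-FLAG or […] and pulled down on Protein A/G magnetic beads for 4 h. Duplicate biological replicates.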
The molecule B1 yielded a C-term flag of 8.

As for B2, the C-term flag was found to be 2.

In turn, B3 gave a C-term flag of 14.

Molecule B4 returned a C-term flag of 8.

Turning to B5, the C-term flag stood at 8.

In turn, B6 yielded a C-term flag of 9.

B7 yielded a C-term flag of 2.

Still in this experiment, the particulars now being: Co-IP with FLAG antibody, N-terminally FLAG-tagged B3GNT2; mass spectrometry count, unit not given.
As for B1, the “N-term FLAG” value worked out at 5.

Take B2: the “N-term FLAG” value is 0.

Regarding B3, the “N-term FLAG” value came out at 10.

With B4, the “N-term FLAG” value is 4.

On to B5, for which the “N-term FLAG” value came to 4.

Regarding B6, the “N-term FLAG” value turned out to be 3.

For B7, the “N-term FLAG” value was determined as 0.

Staying with this experiment, now noted: Co-IP with IgG control antibody, C-terminally FLAG-tagged B3GNT2; mass spectrometry count, unit not given.
As to B1, the “C-term IgG” value is given as 0.

Turning to B2, the “C-term IgG” value is 0.

B3: the “C-term IgG” value worked out at 2.

As to B4, the “C-term IgG” value was determined as 0.

Turning to B5, the “C-term IgG” value is 0.

B6: the “C-term IgG” value worked out at 0.

B7: the “C-term IgG” value came out at 0.

Still in this experiment, the particulars now being: Co-IP with IgG control antibody, N-terminally FLAG-tagged B3GNT2; mass spectrometry count, unit not given.
Turning to B1, the “N-term IgG” value turned out to be 0.

As for B2, the “N-term IgG” value stood at 0.

In the case of B3, the “N-term IgG” value worked out at 0.

In the case of B4, the “N-term IgG” value was 0.

Take B5: the “N-term IgG” value is recorded as 0.

As to B6, the “N-term IgG” value is listed as 0.

Turning to B7, the “N-term IgG” value turned out to be 0.
